Data reported in paper PMC7789494.

Substrate: O=C1C(Cl)=CC(=Nc2ccc(O)cc2)C=C1Cl
Assay: purified protein
Assay type: biochemical, Phanerodontia chrysosporium
Details: 500 µM cellobiose, 50 mM sodium acetate pH 4.5, electron acceptor

B1: PcCDHTr (Phanerodontia chrysosporium) (protein)
chain: QSASQFTDPTTGFQFTGITDPVHDVTYGFVFPPLATSGAQSTEFIGEVVAPIASKWIGIALGGAMNNDLLLVAWANGNQIVSSTRWATGYVQPTAYTGTATLTTLPETTINSTHWKWVFRCQGCTEWNNGGGIDVTSQGVLAWAFSNVAVDDPSDPQSTFSEHTDFGFFGIDYSTAHSANYQNYLNGDSGNPTTTSTKPTSTSSSVTTGPTVSATPYDYIIVGAGPGGIIAADRLSEAGKKVLLLERGGPSTKQTGGTYVAPWATSSGLTKFDIPGLFESLFTDSNPFWWCKDITVFAGCLVGGGTSVNGALYWYPNDGDFSSSVGWPSSWTNHAPYTSKLSSRLPSTDHPSTDGQRYLEQSFNVVSQLLKGQGYNQATINDNPNYKDHVFGYSAFDFLNGKRAGPVATYLQTALARPNFTFKTNVMVSNVVRNGSQILGVQTNDPTLGPNGFIPVTPKGRVILSAGAFGTSRILFQSGIGPTDMIQTVQSNPTAAAALPPQNQWINLPVGMNAQDNPSINLVFTHPSIDAYENWADVWSNPRPADAAQYLANQSGVFAGASPKLNFWRAYSGSDGFTRYAQGTVRPGAASVNSSLPYNASQIFTITVYLSTGIQSRGRIGIDAALRGTVLTPPWLVNPVDKTVLLQALHDVVSNIGSIPGLTMITPDVTQTLEEYVDAYDPATMNSNHWVSSTTIGSSPQSAVVDSNVKVFGTNNLFIVDAGIIPHLPTGNPQGTLMSAAEQAAAKILALAGGP
notes: full two-domain flavocytochrome, native signal peptide (cleaved), untagged, secreted by Trichoderma reesei delta-xyr1; 83 kDa by SDS-PAGE
Question: Which results are given for B1?
Answer: Km: 4.31 ± 0.11 µM; kcat: 24.4 ± 0.2 s⁻¹; kcat/Km: 5.66e+06 ± 159000 M⁻¹ s⁻¹
